How the values were obtained:
HLA-A*02:01 [1] = experiment: IEDB peptide-MHC binding, purified MHC/direct/fluorescence; filed as Kd, often an IC50 or EC50 that approximates it; ≥ and ≤ were set here for values at or beyond the usual limits of such assays
HLA-A*69:01 = experiment: as above
HLA-C*12:03 = experiment: as above; details: source organism: Coxiella burnetii RSA 331
HLA-A*02:50 = experiment: IEDB peptide-MHC binding, purified MHC/competitive/fluorescence; filed as Kd, often an IC50 or EC50 that approximates it; ≥ and ≤ were set here for values at or beyond the usual limits of such assays
HLA-B*57:01 = experiment: IEDB peptide-MHC binding, purified MHC/direct/fluorescence; filed as Kd, often an IC50 or EC50 that approximates it; ≥ and ≤ were set here for values at or beyond the usual limits of such assays
HLA-B*46:01 = experiment: as above
HLA-A*68:02 = experiment: as above; details: source organism: Marburg virus - Musoke, Kenya, 1980
HLA-B*18:01 = experiment: as above
HLA-A*01:01 [2] = experiment: as above
HLA-B*07:02 = experiment: as above
HLA-C*05:01 = experiment: as above; details: source organism: Orthomarburgvirus marburgense
HLA-B*39:01 [3] = experiment: as above; details: source organism: Marburg virus - Musoke, Kenya, 1980
HLA-B*15:01 [4] = experiment: as above
HLA-B*15:17 = experiment: as above
HLA-B*58:01 = experiment: as above
HLA-B*38:01 = experiment: as above
HLA-B*48:01 [5] = experiment: as above
HLA-B*08:02 = experiment: as above
HLA-B*15:09 = experiment: as above
HLA-B*27:05 = experiment: as above
HLA-B*40:01 = experiment: as above
HLA-A*30:01 = experiment: IEDB peptide-MHC binding, purified MHC/competitive/fluorescence; filed as Kd, often an IC50 or EC50 that approximates it; ≥ and ≤ were set here for values at or beyond the usual limits of such assays
HLA-A*26:02 [6] = experiment: as above; details: source organism: Orthomarburgvirus marburgense
HLA-A*02:01 [7] = experiment: as above
HLA-B*08:01 [8] = experiment: IEDB peptide-MHC binding, purified MHC/direct/fluorescence; filed as Kd, often an IC50 or EC50 that approximates it; ≥ and ≤ were set here for values at or beyond the usual limits of such assays
HLA-B*51:01 = experiment: as above; details: source organism: Mycobacterium tuberculosis
HLA-A*03:01 = experiment: as above
HLA-A*11:01 = experiment: as above
HLA-A*26:01 = experiment: as above
HLA-A*31:01 = experiment: as above
HLA-B*83:01 = experiment: IEDB peptide-MHC binding, purified MHC/competitive/fluorescence; filed as Kd, often an IC50 or EC50 that approximates it; ≥ and ≤ were set here for values at or beyond the usual limits of such assays; details: source organism: Mycobacterium tuberculosis C
HLA-B*15:01 [9] = experiment: as above
HLA-B*15:42 = experiment: as above; details: source organism: Mycobacterium tuberculosis C
HLA-B*45:06 = experiment: as above; details: source organism: Mycobacterium tuberculosis C
HLA-A*26:03 = experiment: IEDB peptide-MHC binding, purified MHC/direct/fluorescence; filed as Kd, often an IC50 or EC50 that approximates it; ≥ and ≤ were set here for values at or beyond the usual limits of such assays; details: source organism: Coxiella burnetii Q321
HLA-A*26:02 [10] = experiment: as above; details: source organism: Coxiella burnetii Q321
HLA-A*01:01 [11] = experiment: IEDB peptide-MHC binding, purified MHC/competitive/fluorescence; filed as Kd, often an IC50 or EC50 that approximates it; ≥ and ≤ were set here for values at or beyond the usual limits of such assays; details: source organism: Coxiella burnetii RSA 493
HLA-B*39:01 [12] = experiment: as above; details: source organism: Coxiella burnetii RSA 493
HLA-B*08:01 [13] = experiment: as above; details: source organism: Coxiella burnetii RSA 493
HLA-B*44:02 = experiment: IEDB peptide-MHC binding, purified MHC/direct/fluorescence; filed as Kd, often an IC50 or EC50 that approximates it; ≥ and ≤ were set here for values at or beyond the usual limits of such assays
HLA-A*24:02 = experiment: as above; details: source organism: Escherichia coli O157:H7
HLA-A*24:03 = experiment: as above; details: source organism: Salmonella enterica subsp. enterica serovar Typhimurium
HLA-B*48:01 [14] = experiment: IEDB peptide-MHC binding, purified MHC/competitive/fluorescence; filed as Kd, often an IC50 or EC50 that approximates it; ≥ and ≤ were set here for values at or beyond the usual limits of such assays; details: source organism: Giardia lamblia ATCC 50803
[15] = source organism: Coxiella burnetii
[16] = source organism: Marburg virus - Musoke, Kenya, 1980
[17] = source organism: Ravn virus - Ravn, Kenya, 1987
[18] = source organism: Orthomarburgvirus marburgense
[19] = source organism: Mycobacterium tuberculosis
[20] = source organism: Mycobacterium tuberculosis str. Haarlem
[21] = source organism: Coxiella burnetii RSA 493
[22] = source organism: Escherichia coli O157:H7
[23] = source organism: Salmonella enterica subsp. enterica serovar Typhimurium

Sequence: YTYPIAHTA
- Kd (HLA-A*02:01 [1]; [15]): 0.852 µM
- Kd (HLA-A*69:01; [15]): 0.0025 µM
- Kd (HLA-C*12:03): 0.004 µM
- Kd (HLA-A*02:50; source organism: Coxiella burnetii RSA 331): 0.0011 µM

Sequence: IFDDLQGSL
- Kd (HLA-B*57:01; [16]): ≥ 20 µM
- Kd (HLA-B*46:01; [16]): ≥ 20 µM
- Kd (HLA-A*68:02): ≥ 20 µM
- Kd (HLA-B*18:01; [16]): ≥ 20 µM
- Kd (HLA-A*01:01 [2]; [16]): ≥ 20 µM
- Kd (HLA-B*07:02; [16]): ≥ 20 µM
- Kd (HLA-C*05:01): 3.84 µM
- Kd (HLA-B*39:01 [3]): ≥ 20 µM
- Kd (HLA-B*15:01 [4]; [16]): ≥ 20 µM
- Kd (HLA-B*15:17; [16]): ≥ 20 µM
- Kd (HLA-B*58:01; [16]): ≥ 20 µM
- Kd (HLA-B*38:01; [17]): ≥ 20 µM
- Kd (HLA-A*69:01; [16]): ≥ 20 µM
- Kd (HLA-B*48:01 [5]; [16]): ≥ 20 µM
- Kd (HLA-B*08:02; [17]): ≥ 20 µM
- Kd (HLA-B*15:09; [17]): ≥ 20 µM
- Kd (HLA-B*27:05; [16]): ≥ 20 µM
- Kd (HLA-B*40:01; [16]): ≥ 20 µM
- Kd (HLA-A*30:01; [18]): ≥ 20 µM
- Kd (HLA-A*26:02 [6]): ≥ 20 µM
- Kd (HLA-A*02:01 [7]; [18]): ≥ 20 µM

Sequence: RPAGARAAF
- Kd (HLA-B*57:01; [19]): ≥ 20 µM
- Kd (HLA-B*46:01; [19]): ≥ 20 µM
- Kd (HLA-B*18:01; [19]): 11.8 µM
- Kd (HLA-A*01:01 [2]; [19]): ≥ 20 µM
- Kd (HLA-B*08:01 [8]; [20]): 6.85 µM
- Kd (HLA-B*15:17; [19]): ≥ 20 µM
- Kd (HLA-B*58:01; [19]): ≥ 20 µM
- Kd (HLA-A*02:01 [1]; [19]): ≥ 20 µM
- Kd (HLA-B*51:01): ≥ 20 µM
- Kd (HLA-B*38:01; [20]): ≥ 20 µM
- Kd (HLA-A*69:01; [19]): ≥ 20 µM
- Kd (HLA-B*48:01 [5]; [19]): ≥ 20 µM
- Kd (HLA-A*03:01; [19]): ≥ 20 µM
- Kd (HLA-A*11:01; [19]): ≥ 20 µM
- Kd (HLA-A*26:01; [20]): ≥ 20 µM
- Kd (HLA-B*08:02; [20]): ≥ 20 µM
- Kd (HLA-B*15:09; [20]): ≥ 20 µM
- Kd (HLA-B*27:05; [19]): ≥ 20 µM
- Kd (HLA-B*40:01; [19]): ≥ 20 µM
- Kd (HLA-A*31:01; [19]): ≥ 20 µM
- Kd (HLA-B*83:01): 0.245 µM
- Kd (HLA-B*15:01 [9]; source organism: Mycobacterium tuberculosis C): ≥ 20 µM
- Kd (HLA-B*15:42): ≥ 5 µM
- Kd (HLA-B*45:06): ≥ 5 µM

Sequence: EIYRTLYGL
- Kd (HLA-A*26:03): 0.182 µM
- Kd (HLA-B*57:01; [15]): ≥ 20 µM
- Kd (HLA-B*46:01; [15]): ≥ 20 µM
- Kd (HLA-B*15:17; [15]): 0.384 µM
- Kd (HLA-B*58:01; [15]): ≥ 20 µM
- Kd (HLA-A*26:02 [10]): 0.006 µM
- Kd (HLA-A*69:01; [15]): 0.0014 µM
- Kd (HLA-B*48:01 [5]; [15]): ≥ 20 µM
- Kd (HLA-A*03:01; [15]): ≥ 20 µM
- Kd (HLA-A*11:01; [15]): ≥ 20 µM
- Kd (HLA-A*26:01; source organism: Coxiella burnetii Q321): 0.067 µM
- Kd (HLA-B*27:05; [15]): ≥ 20 µM
- Kd (HLA-B*40:01; [15]): ≥ 20 µM
- Kd (HLA-A*31:01; [15]): ≥ 20 µM
- Kd (HLA-A*30:01; [21]): 2.47 µM
- Kd (HLA-A*01:01 [11]): 4.29 µM
- Kd (HLA-B*39:01 [12]): 2.74 µM
- Kd (HLA-B*15:01 [9]; [21]): ≥ 20 µM
- Kd (HLA-B*08:01 [13]): 7 µM
- Kd (HLA-A*02:01 [7]; [21]): ≥ 20 µM

Sequence: LLDPLYFEV
- Kd (HLA-B*46:01; [22]): ≥ 20 µM
- Kd (HLA-B*07:02; [22]): ≥ 20 µM
- Kd (HLA-B*44:02; [22]): ≥ 20 µM
- Kd (HLA-B*15:01 [4]; [22]): ≥ 20 µM
- Kd (HLA-B*58:01; [22]): ≥ 20 µM
- Kd (HLA-A*02:01 [1]; [22]): 0.0042 µM
- Kd (HLA-A*03:01; [22]): ≥ 20 µM
- Kd (HLA-A*11:01; [22]): ≥ 20 µM
- Kd (HLA-A*24:02): ≥ 20 µM
- Kd (HLA-B*27:05; [22]): ≥ 20 µM
- Kd (HLA-B*40:01; [22]): ≥ 20 µM
- Kd (HLA-A*31:01; [22]): ≥ 20 µM
- Kd (HLA-A*02:50; source organism: Escherichia coli 536): ≤ 0.0001 µM

Sequence: FMIDWILDA
- Kd (HLA-A*01:01 [2]; [23]): ≥ 20 µM
- Kd (HLA-B*07:02; [23]): ≥ 20 µM
- Kd (HLA-B*44:02; [23]): ≥ 20 µM
- Kd (HLA-B*15:01 [4]; [23]): 0.264 µM
- Kd (HLA-A*24:03): ≥ 20 µM
- Kd (HLA-B*08:01 [8]; [23]): ≥ 20 µM
- Kd (HLA-B*58:01; [23]): ≥ 20 µM
- Kd (HLA-A*02:01 [1]; [23]): 0.003 µM
- Kd (HLA-A*69:01; [23]): 0.056 µM
- Kd (HLA-A*03:01; [23]): ≥ 20 µM
- Kd (HLA-A*11:01; [23]): ≥ 20 µM
- Kd (HLA-A*26:01; [23]): ≥ 20 µM
- Kd (HLA-B*27:05; [23]): ≥ 20 µM
- Kd (HLA-B*40:01; [23]): ≥ 20 µM
- Kd (HLA-A*31:01; [23]): ≥ 20 µM
- Kd (HLA-A*02:50; source organism: Aeromonas salmonicida subsp. salmonicida): ≤ 0.0001 µM

Sequence: GMYGHPFAL
- Kd (HLA-B*48:01 [14]): 0.0283 µM
